Test results from article doi:10.1101/2021.07.22.452893 (bioRxiv, 2021).
Each block holds one molecule with its values, some of them ahead of it.

Experiments:
[1] = molecular target: Complement factor H (human) (UniProt P08603); assay: ELISA
fibrinogen = molecular target: T1, fibrinogen (UniProt P02671-2 20-644; P02675 31-491; P02679-2 27-437); assay: SPR
T1 sequence (looked up) 1: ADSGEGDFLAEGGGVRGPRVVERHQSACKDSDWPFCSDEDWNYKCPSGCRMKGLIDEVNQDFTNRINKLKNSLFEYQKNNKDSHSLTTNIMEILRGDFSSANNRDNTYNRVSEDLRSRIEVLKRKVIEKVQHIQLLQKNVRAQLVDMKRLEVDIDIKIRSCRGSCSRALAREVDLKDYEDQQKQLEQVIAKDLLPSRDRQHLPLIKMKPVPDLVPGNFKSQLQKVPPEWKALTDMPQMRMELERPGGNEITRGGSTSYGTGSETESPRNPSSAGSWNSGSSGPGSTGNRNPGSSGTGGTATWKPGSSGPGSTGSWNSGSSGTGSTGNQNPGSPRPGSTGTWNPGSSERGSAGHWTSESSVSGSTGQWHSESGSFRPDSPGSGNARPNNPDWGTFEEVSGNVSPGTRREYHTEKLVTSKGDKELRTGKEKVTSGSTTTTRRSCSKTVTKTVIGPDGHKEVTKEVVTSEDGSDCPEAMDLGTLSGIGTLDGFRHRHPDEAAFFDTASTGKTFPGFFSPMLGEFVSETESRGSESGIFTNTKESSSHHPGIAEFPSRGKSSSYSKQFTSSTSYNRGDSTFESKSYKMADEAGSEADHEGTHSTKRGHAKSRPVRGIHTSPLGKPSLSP
T1 sequence (looked up) 2: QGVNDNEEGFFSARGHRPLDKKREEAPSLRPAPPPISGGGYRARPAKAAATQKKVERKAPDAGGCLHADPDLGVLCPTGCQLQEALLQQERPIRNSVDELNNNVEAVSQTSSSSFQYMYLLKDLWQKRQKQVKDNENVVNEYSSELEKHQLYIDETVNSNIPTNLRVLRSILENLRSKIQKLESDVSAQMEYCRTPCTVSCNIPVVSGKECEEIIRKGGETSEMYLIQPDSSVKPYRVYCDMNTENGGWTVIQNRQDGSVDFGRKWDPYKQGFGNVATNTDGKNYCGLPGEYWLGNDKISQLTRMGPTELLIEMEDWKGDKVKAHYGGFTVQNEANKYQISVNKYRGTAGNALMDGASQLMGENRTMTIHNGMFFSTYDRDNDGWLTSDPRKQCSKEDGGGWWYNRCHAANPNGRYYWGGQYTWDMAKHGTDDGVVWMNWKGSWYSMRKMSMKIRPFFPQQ
T1 sequence (looked up) 3: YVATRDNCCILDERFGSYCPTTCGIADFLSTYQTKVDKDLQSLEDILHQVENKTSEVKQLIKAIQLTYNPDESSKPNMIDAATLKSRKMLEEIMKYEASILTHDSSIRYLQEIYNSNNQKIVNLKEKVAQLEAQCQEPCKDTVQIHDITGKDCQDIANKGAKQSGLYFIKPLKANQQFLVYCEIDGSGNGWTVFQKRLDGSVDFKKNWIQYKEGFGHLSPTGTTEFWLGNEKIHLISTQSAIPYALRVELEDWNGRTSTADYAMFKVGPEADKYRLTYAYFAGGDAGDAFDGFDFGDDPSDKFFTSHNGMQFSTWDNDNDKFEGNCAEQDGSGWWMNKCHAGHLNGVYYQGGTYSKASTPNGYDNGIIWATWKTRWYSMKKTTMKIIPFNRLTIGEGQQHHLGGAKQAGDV

PPACK-thrombin = assay: SPR

FH-thrombin complex formed in plasma [1]: 62 nM
Molecule: PPACK-thrombin (enzyme)

Kd (fibrinogen): 38.2 nM | Kd (PPACK-thrombin): 29.7 nM
B1: Complement factor H (natural protein, human, UniProt P08603 19-1231, looked up)
chain: EDCNELPPRRNTEILTGSWSDQTYPEGTQAIYKCRPGYRSLGNVIMVCRKGEWVALNPLRKCQKRPCGHPGDTPFGTFTLTGGNVFEYGVKAVYTCNEGYQLLGEINYRECDTDGWTNDIPICEVVKCLPVTAPENGKIVSSAMEPDREYHFGQAVRFVCNSGYKIEGDEEMHCSDDGFWSKEKPKCVEISCKSPDVINGSPISQKIIYKENERFQYKCNMGYEYSERGDAVCTESGWRPLPSCEEKSCDNPYIPNGDYSPLRIKHRTGDEITYQCRNGFYPATRGNTAKCTSTGWIPAPRCTLKPCDYPDIKHGGLYHENMRRPYFPVAVGKYYSYYCDEHFETPSGSYWDHIHCTQDGWSPAVPCLRKCYFPYLENGYNQNYGRKFVQGKSIDVACHPGYALPKAQTTVTCMENGWSPTPRCIRVKTCSKSSIDIENGFISESQYTYALKEKAKYQCKLGYVTADGETSGSITCGKDGWSAQPTCIKSCDIPVFMNARTKNDFTWFKLNDTLDYECHDGYESNTGSTTGSIVCGYNGWSDLPICYERECELPKIDVHLVPDRKKDQYKVGEVLKFSCKPGFTIVGPNSVQCYHFGLSPDLPICKEQVQSCGPPPELLNGNVKEKTKEEYGHSEVVEYYCNPRFLMKGPNKIQCVDGEWTTLPVCIVEESTCGDIPELEHGWAQLSSPPYYYGDSVEFNCSESFTMIGHRSITCIHGVWTQLPQCVAIDKLKKCKSSNLIILEEHLKNKKEFDHNSNIRYRCRGKEGWIHTVCINGRWDPEVNCSMAQIQLCPPPPQIPNSHNMTTTLNYRDGEKVSVLCQENYLIQEGEEITCKDGRWQSIPLCVEKIPCSQPPQIEHGTINSSRSSQESYAHGTKLSYTCEGGFRISEENETTCYMGKWSSPPQCEGLPCKSPPEISHGVVAHMSDSYQYGEEVTYKCFEGFGIDGPAIAKCLGEKWSHPPSCIKTDCLSLPSFENAIPMGEKKDVYKAGEQVTYTCATYYKMDGASNVTCINSRWTGRPTCRDTSCVNPPTVQNAYIVSRQMSKYPSGERVRYQCRSPYEMFGDEEVMCLNGNWTEPPQCKDSTGKCGPPPPIDNGDITSFPLSVYAPASSVEYQCQNLYQLEGNKRITCRNGQWSEPPKCLHPCVISREIMENYNIALRWTAKQKLYSRTGESVEFVCKRGYRLSSRSHTLRTTCWDGKLEYPTCAKR
